Experimental data: publication PMC8481289 (2021)

Experiments:
UBA5 333–404 = UBA5 333–404 (human, UniProt Q9GZZ9 333-404); assay: ITC
UBA5 Y372A = UBA5 Y372A (human, UniProt Q9GZZ9 1-404, Y372A); assay: ITC
Chain of UBA5 Y372A (Q9GZZ9 whole entry Y372A): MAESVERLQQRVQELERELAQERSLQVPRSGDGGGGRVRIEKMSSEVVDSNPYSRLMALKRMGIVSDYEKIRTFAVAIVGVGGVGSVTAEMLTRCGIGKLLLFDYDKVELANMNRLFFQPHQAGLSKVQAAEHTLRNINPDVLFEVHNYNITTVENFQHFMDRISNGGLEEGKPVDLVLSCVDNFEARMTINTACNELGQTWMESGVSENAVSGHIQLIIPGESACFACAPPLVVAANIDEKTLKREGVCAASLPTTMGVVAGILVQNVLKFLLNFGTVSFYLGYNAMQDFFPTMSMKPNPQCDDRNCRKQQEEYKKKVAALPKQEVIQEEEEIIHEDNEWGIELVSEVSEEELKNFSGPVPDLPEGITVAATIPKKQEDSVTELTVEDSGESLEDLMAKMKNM

Chain of UBA5 333–404 (Q9GZZ9 333-404): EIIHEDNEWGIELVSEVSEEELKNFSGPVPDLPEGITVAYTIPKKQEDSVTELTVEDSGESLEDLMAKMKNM

B1: UFC1 (WT) (enzyme)
chain: MADEATRRVVSEIPVLKTNAGPRDRELWVQRLKEEYQSLIRYVENNKNADNDWFRLESNKEGTRWFGKCWYIHDLLKYEFDIEFDIPITYPTTAPEIAVPELDGKTAKMYRGGKICLTDHFKPLWARNVPKFGLAHLMALGLGPWLAVEIPDLIQKGVIQHKEKCNQ
Question: How did the Kd (UBA5 333–404) turn out when B1 was run?
Answer: Its Kd is 2500 nM.

Question: What about the Kd (UBA5 Y372A) of the same binder?
Answer: Its Kd is 1900 nM.
